Kd data for 2 substances are collected here from paper PMC9949255.

Experiment [1] addresses recombinant HIV-1 gp120 ZM109 (HIV-1 strain ZM109). As to the kind of experiment: BLI; Octet Red96; recombinant gp120 coupled to AR2G biosensors, dipped into titrated SLBR-N; PBS with 0.1% BSA and 0.02% Tween 20; 1:1 global fit.
Experiment [2] shares this target. Description: BLI; Octet Red96; anti-Env mAb 2219 (5 μg/mL) on AHC biosensors, then recombinant gp120 ZM109 (5 μg/mL), dipped into titrated FimH; PBS with 0.1% BSA and 0.02% Tween 20; 1:1 global fit.

As to “Streptococcal Siglec-like lectin SLBR-N, GST-tagged (domain or fragment)”, the Kd in experiment [1] is 40.3 nM.
For the substance “recombinant FimH protein (lectin domain only) (from UniProt P08191 22-179) (domain or fragment)”, in experiment [2], the Kd was determined as 360 nM.
